From US20260130994A1 come the findings set out here.

Some results are limits rather than exact numbers.

The assay deals with CD3ε on wildtype primary human T cells (human) (UniProt P07766). In words: cell-based or functional assay.

Chain of CAR4 (CD3ε.CD8α.4-1BB.CD3ζ), myc-tagged second-generation CAR with the OKT3 scFv, expressed on NK-92 cells (chain): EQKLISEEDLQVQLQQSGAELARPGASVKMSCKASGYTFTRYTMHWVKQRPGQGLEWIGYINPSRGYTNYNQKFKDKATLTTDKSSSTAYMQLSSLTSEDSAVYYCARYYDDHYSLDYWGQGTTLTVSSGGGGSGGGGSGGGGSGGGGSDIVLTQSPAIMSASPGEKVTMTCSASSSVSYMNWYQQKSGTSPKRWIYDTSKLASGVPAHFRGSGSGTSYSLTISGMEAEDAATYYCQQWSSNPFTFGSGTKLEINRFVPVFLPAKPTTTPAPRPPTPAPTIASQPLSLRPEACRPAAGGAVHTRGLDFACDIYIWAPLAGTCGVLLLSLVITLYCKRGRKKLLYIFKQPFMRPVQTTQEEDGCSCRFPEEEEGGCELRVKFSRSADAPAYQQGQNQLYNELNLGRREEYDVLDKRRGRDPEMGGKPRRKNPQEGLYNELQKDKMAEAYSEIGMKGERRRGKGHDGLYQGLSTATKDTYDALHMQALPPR

In the case of “CAR4 (CD3ε.CD8α.4-1BB.CD3ζ), myc-tagged second-generation CAR with the OKT3 scFv, expressed on NK-92 cells”, the average residual TCR+ T cells after co-culture in G-Rex, regimen 1:2A amounted to 0.026%; the average residual TCR+ T cells after co-culture in G-Rex, regimen 1:2B turned out to be 0.007%; the removal of residual wildtype T cells, 2 co-culture cycles was more than 99.9%; the removal of residual wildtype T cells, single administration was found to be 98.6%.
